Measured values reported in article PMC4865633, “Data on dimer formation between importin α subtypes” (Data in Brief, 2016).

B1: GST-h-importin α3 (KPNA4, Qip1) (natural protein)
chain: MADNEKLDNQRLKNFKNKGRDLETMRRQRNEVVVELRKNKRDEHLLKRRNVPHEDICEDSDIDGDYRVQNTSLEAIVQNASSDNQGIQLSAVQAARKLLSSDRNPPIDDLIKSGILPILVHCLERDDNPSLQFEAAWALTNIASGTSEQTQAVVQSNAVPLFLRLLHSPHQNVCEQAVWALGNIIGDGPQCRDYVISLGVVKPLLSFISPSIPITFLRNVTWVMVNLCRHKDPPPPMETIQEILPALCVLIHHTDVNILVDTVWALSYLTDAGNEQIQMVIDSGIVPHLVPLLSHQEVKVQTAALRAVGNIVTGTDEQTQVVLNCDALSHFPALLTHPKEKINKEAVWFLSNITAGNQQQVQAVIDANLVPMIIHLLDKGDFGTQKEAAWAISNLTISGRKDQVAYLIQQNVIPPFCNLLTVKDAQVVQVVLDGLSNILKMAEDEAETIGNLIEECGGLEKIEQLQNHENEDIYKLAYEIIDQFFSSDDIDEDPSLVPEAIQGGTFGFNSSANVPTEGFQF
notes: human importin α3 (KPNA4, Qip1); plasmid pGEX2T-human-importin α3, obtained as described previously; also called GST-importin α3; IMPα3; source: E. coli Rosetta, purified on GSH beads, bacterially expressed and purified recombinant protein

Legend:
Settings in all cases: both partners purified
[1] = target: FLAG-h-importin α1 (KPNA2) (human, UniProt P52292 1-529); assay: pull-down; GST-h-importin α3 (50 pmol) on GSH beads preincubated with p53 (250 pmol) in TB with 0.1% Triton X-100 at 4 °C for 1 h, washed, then 50 or 500 pmol FLAG-h-importin α8 or α1 added at 4 °C for 1 h; western blot (Fig. 2B)
[2] = target: B1; assay: pull-down; GST-h-importin α3 (50 pmol) on GSH beads preincubated with SV40TNLS-GFP (50 pmol) at 4 °C for 1 h, washed, then 50 or 500 pmol FLAG-h-importin α8 or α1 added at 4 °C for 1 h; western blot (Fig. 1B)
[3] = target: B1; assay: pull-down; GST-h-importin α3 (50 pmol) on GSH beads preincubated with p53 (250 pmol) in TB with 0.1% Triton X-100 at 4 °C for 1 h, washed, then 50 or 500 pmol FLAG-h-importin α8 or α1 added at 4 °C for 1 h; western blot (Fig. 2B)
[4] = target: GST-m-importin α1 (KPNA2) (mouse, UniProt P52293 1-529); assay: pull-down; GST fusions immobilized on GSH beads, 100 pmol FLAG-importin α in 200 μL transport buffer (20 mM HEPES pH 7.3, 110 mM potassium acetate, 2 mM magnesium acetate, 1 mM EGTA, 1 mM DTT) with 0.1% Triton X-100, 4 °C, 1 h; western blot with anti-FLAG and anti-GST (Fig. 1A)
[5] = target: T1, GST-h-importin α8 (KPNA7) (human, UniProt A9QM74 1-516); assay: as above
T1 construct: human importin α8 (KPNA7); also called GST-importin α8; IMPα8; source: E. coli Rosetta, purified on GSH beads, bacterially expressed and purified recombinant protein
T1 sequence (A9QM74 whole entry): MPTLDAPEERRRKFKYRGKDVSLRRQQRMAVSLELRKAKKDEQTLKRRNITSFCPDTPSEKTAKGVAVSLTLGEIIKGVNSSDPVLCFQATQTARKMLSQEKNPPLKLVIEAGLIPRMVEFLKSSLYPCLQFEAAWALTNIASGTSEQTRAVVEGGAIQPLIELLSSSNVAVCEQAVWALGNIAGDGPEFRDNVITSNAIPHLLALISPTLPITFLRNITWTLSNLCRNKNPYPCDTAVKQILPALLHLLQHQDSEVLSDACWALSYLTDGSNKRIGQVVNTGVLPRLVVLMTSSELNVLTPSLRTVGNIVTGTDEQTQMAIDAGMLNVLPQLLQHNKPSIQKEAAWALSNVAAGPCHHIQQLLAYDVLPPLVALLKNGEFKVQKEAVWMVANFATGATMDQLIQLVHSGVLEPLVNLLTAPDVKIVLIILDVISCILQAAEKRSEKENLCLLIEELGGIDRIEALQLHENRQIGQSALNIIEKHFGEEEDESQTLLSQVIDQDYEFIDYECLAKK

B1: binds [1].

B2: SV40TNLS-GFP (domain or fragment)
chain: PPKKKRKVED
notes: also called SV40TNLS substrate; SV40 large T antigen NLS
B2: binds [2].

B3: FLAG-h-importin α8 (KPNA7) (natural protein)
chain: not shown
notes: human importin α8 (KPNA7), amplified from pcDNA5/3xFLAG-h-importin α8 with primers from the start codon to the stop codon, in pGEX6P3; Cleavage of GST is told in general in the methods; also called FLAG-importin α8; IMPα8; source: E. coli Rosetta, GST fusion purified on GSH beads, bacterially expressed and purified recombinant protein; not shown: FLAG, N-terminal, kept
B3: binds [3]; binds [4]; binds [5].
